Publication PMC10661694, “Architecture and regulation of a GDNF-GFRα1 synaptic adhesion assembly” (Nature Communications, 2023)

T1: human GDNF structured region, residues 110-211 (hGDNF^mat) (human, UniProt P39905 110-211)
T1 chain: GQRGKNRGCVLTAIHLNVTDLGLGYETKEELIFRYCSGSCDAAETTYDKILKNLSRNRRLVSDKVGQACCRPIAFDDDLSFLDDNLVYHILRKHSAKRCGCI

T2: full length, GPI-anchored rat GFRα1 (mGFRα1^FL; HA-rGFRα1^1-468) (rat) (UniProt Q62997)
T2 sequence (chain, GPI-anchor): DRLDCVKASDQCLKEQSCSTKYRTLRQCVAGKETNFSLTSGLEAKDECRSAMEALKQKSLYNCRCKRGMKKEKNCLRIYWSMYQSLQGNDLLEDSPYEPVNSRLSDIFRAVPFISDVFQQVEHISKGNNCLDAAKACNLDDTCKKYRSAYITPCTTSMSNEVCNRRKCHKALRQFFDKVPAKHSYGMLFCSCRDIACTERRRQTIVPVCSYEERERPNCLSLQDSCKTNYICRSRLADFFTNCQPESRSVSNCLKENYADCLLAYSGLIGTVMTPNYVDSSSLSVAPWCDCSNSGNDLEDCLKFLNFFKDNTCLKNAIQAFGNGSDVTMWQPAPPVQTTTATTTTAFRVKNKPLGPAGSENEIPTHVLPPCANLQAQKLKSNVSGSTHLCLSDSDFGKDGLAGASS

B1: zebrafish GFRα1 residues 144-368 (zGFRα1^D2-D3+) (domain or fragment, UniProt Q98TT9 144-368, looked up)
chain: EPALAKENNCLNAAKACNLNDTCKKYRSAYISPCTSRVSTAEVCNKRKCHKALRQFFDKVPPKHSYGMLYCSCPLGDQSACSERRRQTIVPACSYEDKERPNCLTLQVSCKTNYICRSRLADFFTNCQPEPLSLSGCLKENYADCLLSYSGLIGTVMTPNYLRSPKISVSPFCDCSSSGNSKEECDRFTEFFTDNACLRNAIQAFGNGTDVSVWHPMPPVQTTTS
notes: GFRα1a, zebrafish, residues 144-368 (D2-D3 and part of the C-tail, lacking D1); also called zGFRα1^144-368; source: Expi293F, secreted; purified (Ni-NTA, SEC) or co-expressed with zGDNF^mat and co-purified; not shown: His6, C-terminal, kept

Key:
[1] = target: T1, human GDNF structured region, residues …; assay: SPR
[2] = target: T2, full length, GPI-anchored rat GFRα1 (mGFRα1^FL; HA-rGFRα1^1-468) (rat)
[3] = target: the molecule itself; assay: negative-stain electron microscopy; zGDNF^mat-zGFRα1^D2-D3+ cross-linked with 0.1% glutaraldehyde, SEC (Superose 6 Increase) in 20 mM HEPES pH 7.5, 130 mM NaCl, ~700 kDa fraction imaged; reconstruction at 30 Å
[4] = target: the molecule itself; assay: crystal structure; zGDNF^mat-zGFRα1^D1-D3 complex at 2.5 mg/ml in 20 mM Tris pH 7.0, 100 mM NaCl, 1 mM CaCl2; sitting drop, 22 °C; D1 clipped during crystallisation; 2.65 Å, P2_1, ten copies in the asymmetric unit
[5] = target: B1; assay: native gel or EMSA; blue native PAGE (3-12% Bis-Tris) of Ni2+-NTA purified co-expressed zGDNF^mat-zGFRα1 samples, 2 mg/ml, 10 mM HEPES pH 7.5, 130 mM NaCl, 1 mM CaCl2; time points; conditions: both partners purified

Kd [1] [nM]	Binder	further results
48	hGFRα1^D1-CT-K251E (protein) DRLDCVKASDQCLKEQSCSTKYRTLRQCVAGKETNFSLASGLEAKDECRSAMEALKQKSLYNCRCKRGMKKEKNCLRIYWSMYQSLQGNDLLEDSPYEPVNSRLSDIFRVVPFISDVFQQVEHIPKGNNCLDAAKACNLDDICKKYRSAYITPCTTSVSNDVCNRRKCHKALRQFFDKVPAKHSYGMLFCSCRDIACTERRRQTIVPVCSYEEREKPNCLNLQDSCETNYICRSRLADFFTNCQPESRSVSSCLKENYADCLLAYSGLIGTVMTPNYIDSSSLSVAPWCDCSNSGNDLEECLKFLNFFKDNTCLKNAIQAFGNGSDVTVWQPAFPVQTTTATTTTALRVKNKPLGPAGSENEIPTHVLPPCANLQAQKLKSNVSGNTHLCISNGNYEKEG	–
33	hGFRα1^D1-CT-L287E (protein) DRLDCVKASDQCLKEQSCSTKYRTLRQCVAGKETNFSLASGLEAKDECRSAMEALKQKSLYNCRCKRGMKKEKNCLRIYWSMYQSLQGNDLLEDSPYEPVNSRLSDIFRVVPFISDVFQQVEHIPKGNNCLDAAKACNLDDICKKYRSAYITPCTTSVSNDVCNRRKCHKALRQFFDKVPAKHSYGMLFCSCRDIACTERRRQTIVPVCSYEEREKPNCLNLQDSCKTNYICRSRLADFFTNCQPESRSVSSCLKENYADCLEAYSGLIGTVMTPNYIDSSSLSVAPWCDCSNSGNDLEECLKFLNFFKDNTCLKNAIQAFGNGSDVTVWQPAFPVQTTTATTTTALRVKNKPLGPAGSENEIPTHVLPPCANLQAQKLKSNVSGNTHLCISNGNYEKEG	–
32	human GFRα1 residues 25-424 (hGFRα1^D1-CT) (domain or fragment) DRLDCVKASDQCLKEQSCSTKYRTLRQCVAGKETNFSLASGLEAKDECRSAMEALKQKSLYNCRCKRGMKKEKNCLRIYWSMYQSLQGNDLLEDSPYEPVNSRLSDIFRVVPFISDVFQQVEHIPKGNNCLDAAKACNLDDICKKYRSAYITPCTTSVSNDVCNRRKCHKALRQFFDKVPAKHSYGMLFCSCRDIACTERRRQTIVPVCSYEEREKPNCLNLQDSCKTNYICRSRLADFFTNCQPESRSVSSCLKENYADCLLAYSGLIGTVMTPNYIDSSSLSVAPWCDCSNSGNDLEECLKFLNFFKDNTCLKNAIQAFGNGSDVTVWQPAFPVQTTTATTTTALRVKNKPLGPAGSENEIPTHVLPPCANLQAQKLKSNVSGNTHLCISNGNYEKEG	–
91	hGFRα1^D1-CT-K251E L287E (protein) DRLDCVKASDQCLKEQSCSTKYRTLRQCVAGKETNFSLASGLEAKDECRSAMEALKQKSLYNCRCKRGMKKEKNCLRIYWSMYQSLQGNDLLEDSPYEPVNSRLSDIFRVVPFISDVFQQVEHIPKGNNCLDAAKACNLDDICKKYRSAYITPCTTSVSNDVCNRRKCHKALRQFFDKVPAKHSYGMLFCSCRDIACTERRRQTIVPVCSYEEREKPNCLNLQDSCETNYICRSRLADFFTNCQPESRSVSSCLKENYADCLEAYSGLIGTVMTPNYIDSSSLSVAPWCDCSNSGNDLEECLKFLNFFKDNTCLKNAIQAFGNGSDVTVWQPAFPVQTTTATTTTALRVKNKPLGPAGSENEIPTHVLPPCANLQAQKLKSNVSGNTHLCISNGNYEKEG	–
–	rat GDNF (rGDNF) (ligand) SPDKQAAALPRRERNRQAAAASPENSRGKGRRGQRGKNRGCVLTAIHLNVTDLGLGYETKEELIFRYCSGSCEAAETMYDKILKNLSRSRRLTSDKVGQACCRPVAFDDDLSFLDDSLVYHILRKHSAKRCGCI	HEK293 cell adhesion assay: proportion of cell clusters of mGFRα1^FL-expressing cells after rat GDNF (200 ng/ml) [2]: 5 fold
71	human GFRα1 residues 150-424 (hGFRα1^D2-CT) (domain or fragment) KGNNCLDAAKACNLDDICKKYRSAYITPCTTSVSNDVCNRRKCHKALRQFFDKVPAKHSYGMLFCSCRDIACTERRRQTIVPVCSYEEREKPNCLNLQDSCKTNYICRSRLADFFTNCQPESRSVSSCLKENYADCLLAYSGLIGTVMTPNYIDSSSLSVAPWCDCSNSGNDLEECLKFLNFFKDNTCLKNAIQAFGNGSDVTVWQPAFPVQTTTATTTTALRVKNKPLGPAGSENEIPTHVLPPCANLQAQKLKSNVSGNTHLCISNGNYEKEG	–
–	B1	binding result [3]: binds
–	zebrafish GFRα1 residues 20-353 (zGFRα1^D1-D3, lacking the GPI-anchor); ordered portion in the crystal zGFRα1^D2-D3 (domain or fragment, UniProt Q98TT9 144-353, looked up, N-linked glycans (8 resolved for the 10 zGFRα1 protomers), GFRα1a, zebrafish, residues 20-353; In the crystal only D2-D3 is present (D1 clipped)) EPALAKENNCLNAAKACNLNDTCKKYRSAYISPCTSRVSTAEVCNKRKCHKALRQFFDKVPPKHSYGMLYCSCPLGDQSACSERRRQTIVPACSYEDKERPNCLTLQVSCKTNYICRSRLADFFTNCQPEPLSLSGCLKENYADCLLSYSGLIGTVMTPNYLRSPKISVSPFCDCSSSGNSKEECDRFTEFFTDNACLRNAIQAFGNGTD	stoichiometry N [4]: 5 protomers in each ring
–	zebrafish GDNF mature structured region, residues 135-235 (zGDNF^mat) (ligand, UniProt Q98TU0 135-235, looked up, GDNF, zebrafish, mature structured region, residues 135-235; The co-expressed form is called untagged; the methods describe no separate untagged construct, so both are kept as one molecule; also called untagged zGDNF^mat; soluble zGDNF^mat; source: Expi293F, secreted; not shown: His6, N-terminal, cleaved) VKGQGRGCLLKEIHLNVTDLDLGYRTKEELIFRYCSGPCHDAETNYDKILNNLTHNKKLDKDTPSRTCCRPIAFDDDISFLDDSLEYHTLKKHSAKKCACV	stoichiometry N [5]: 1 zGDNF^mat protomers per zGFRα1 (10:10)
–	zebrafish GDNF residues 134-235 (mature form, zGDNF^mat), crystallised in complex with zGFRα1^D1-D3 (ligand, UniProt Q98TU0 134-235, looked up, N-linked glycan at the N-glycosylation site of all zGDNF protomers, GDNF, zebrafish, residues 134-235 (mature form); the methods give 135-235 for zGDNF^mat; Covalent dimer) RVKGQGRGCLLKEIHLNVTDLDLGYRTKEELIFRYCSGPCHDAETNYDKILNNLTHNKKLDKDTPSRTCCRPIAFDDDISFLDDSLEYHTLKKHSAKKCACV	stoichiometry N [4]: 2 protomers in each covalent dimer
